# In patent publication US20220143148A1, “COMPOSITIONS AND METHODS FOR MODULATING CGRP SIGNALING TO REGULATE INTESTINAL INNATE LYMPHOID CELLS” (The Broad Institute, Inc., priority 2019, published 2022):
# B1: OVA (protein, UniProt P01012 2-386, looked up)
# Ovalbumin: GSIGAASMEFCFDVFKELKVHHANENIFYCPIAIMSALAMVYLGAKDSTRTQINKVVRFDKLPGFGDSIEAQCGTSVNVHSSLRDILNQITKPNDVYSFSLASRLYAEERYPILPEYLQCVKELYRGGLEPINFQTAADQARELINSWVESQTNGIIRNVLQPSSVDSQTAMVLVNAIVFKGLWEKAFKDEDTQAMPFRVTEQESKPVQMMYQIGLFRVASMASEKMKILELPFASGTMSMLVLLPDEVSGLEQLESIINFEKLTEWTSSNVMEERKIKVYLPRMKMEEKYNLTSVLMAMGITDVFSSSANLSGISSAESLKISQAVHAAHAEINEAGREVVGSAEAGVDAASVSEEFRADHPFLFCIKHIATNAVLFFGRCVSP
# Test system: small intestinal immune cells
# Test: Droplet-based scRNA-seq of small intestinal immune cells (LP and PP), OVA vs PBS, clustering and differential expression
# Type: in vivo, mouse
# Conditions: PP; cluster ID 8; OVA vs PBS
# Excerpt: To comprehensively characterize small intestinal immune cells, Applicants generated scRNA-Seq profiles for 58,067 immune cells collected from lamina propria (LP) and Peyer's patch (PP) regions at steady state and after induction of a type 2 inflammatory reaction to ovalbumin (OVA) (Brandt et al., 2003) (FIGS. 1A and 8A). To ensure sufficient representation of rare cells, Applicants combined a normalization strategy—removing by flow sorting either a portion of IgD+ naïve B cells, which are the most abundant cell type in PPs, or all CD19+ and CD3+ T cells (FIG. 8B, Methods)—with profiling of a sufficiently large number of cells number (P>0.99 to recover at least 15 cells from each cluster, Methods) by massively parallel scRNA-seq (Haber et al., 2017) (Methods). Applicants obtained 36,797 and 21,270 high quality cells passing initial filtering (Methods) from PP and LP regions, respectively.
# Overall, Applicants annotated 27 cell subsets across the two compartments, spanning T cells, B cells, ILCs, dendritic cells (DCs), myeloid cells and stromal cells, in frequencies ranging from 0.07% to 14%. Briefly, Applicants first partitioned the cells from the PP regions by unsupervised clustering (Methods) into 46 clusters, retained the 97% of cells that were robustly assigned cell identities in each cluster (Methods), assigned the cells from the LP regions to the 46 clusters using a classifier (Methods), and visualized the data with scvis (Ding et al., 2018), a deep generative model-based method (FIGS. 1B and 8C, Methods). Next, Applicants identified genes that were differentially expressed between the cells in each cluster and the remaining cells (Table 1, Methods), as well as between pairs of clusters (Table 2), to elucidate identities of similar cell types/states. Applicants excluded from downstream analysis clusters mostly consisting of contaminants from epithelium, likely doublets, or cells with a small number of Unique Molecular Identifiers (UMIs) (FIGS. 1C and 8D), or lacking distinct markers (Methods). Altogether, Applicants retained 27 clusters spanning 85% of the cells and each associated with distinct marker genes (FIG. 8E, Methods).
# To induce allergic reaction to OVA, 6 to 7 weeks old mice were sensitized twice, two weeks apart, with 50 μg of OVA plus 1 mg of aluminum potassium sulfate adjuvant via intraperitoneal injection. Two weeks later, mice were orally administered with 50 mg of OVA on every other day for a total of five times. 1 μg of α-CGRP peptide was administered simultaneously when indicated. Mice were deprived of food for 3-4 hours in cages with wood chip bedding for limiting antigen degradation in the stomach before each intragastric challenge.
# Isolation of cells from Peyer's patches (PPs). Peyer's patches (PPs) were carefully dissected from the small intestine under a stereo microscope using a fine scissor, pierced once with a fine forcep. Tissues were digested in freshly made digestion buffer (RPMI-1640 containing 100 μg/ml Liberase™ and 50 μg/ml DNase I at 37° C. on a roto-mixer. After 15 min, tissues were very gently mixed using a 1 ml pipette. The supernatant was collected and added to ice-cold MACS buffer (pH 7.4; PBS plus 2% FCS and 2 mM EDTA). Pre-warmed (37° C.) fresh digestion buffer was added to the remaining tissues. After rotation at 37° C. for 15 min, the mixture was vigorously mixed using a 1 ml pipette for 1 min. Supernatants from the two steps were combined and passed through 70 μm filters and stained for FACS (below).
# Isolation of cells from the lamina propria (LP). The small intestines were opened longitudinally and washed in ice-cold PBS. For scRNA-seq, roughly 0.5 cm of fragments from each of the distal, middle and proximal regions without visible PPs were collected. Epithelial cells were dissociated by tissue rotation in pre-warmed (37° C.) PBS containing 10 mM EDTA at 37° C. for 15 min, followed by additional incubation on ice for 15 min. Tissues were then shaken vigorously. […]
molecule,measurement,value
B1,Fosl2 LN (average fold change),−0.358
same,Ftl1 LN (average fold change),−0.171
same,Gadd45b LN (average fold change),−0.563
same,Gimap1 LN (average fold change),0.283
same,Gimap6 LN (average fold change),0.272
same,Gimap9 LN (average fold change),0.367
same,Gnai2 LN (average fold change),−0.261
same,Gramd1a LN (average fold change),0.460
same,Gramd3 LN (average fold change),−0.502
same,Gzma LN (average fold change),0.340
same,H2-K1 LN (average fold change),0.192
same,H3f3b LN (average fold change),−0.185
same,Hcst LN (average fold change),0.174
same,Hist1h1c LN (average fold change),0.586
same,Hist1h1e LN (average fold change),1.277
same,Icam1 LN (average fold change),−0.819
same,Id2 LN (average fold change),0.467
same,Ier2 LN (average fold change),−0.235
same,Ier5l LN (average fold change),−1.422
same,Ifi203 LN (average fold change),0.402
same,Ifrd1 LN (average fold change),−0.708
same,Igha LN (average fold change),0.514
same,Igkc LN (average fold change),0.390
same,Ikzf2 LN (average fold change),−0.467
same,Il2rg LN (average fold change),−0.226
same,Il16 LN (average fold change),0.455
same,Jun LN (average fold change),0.210
same,Jund LN (average fold change),−0.703
same,Kdm2b LN (average fold change),−0.379
same,Kdm6b LN (average fold change),−0.833
same,Klf4 LN (average fold change),−0.524
same,Klf6 LN (average fold change),0.166
same,Klrb1c LN (average fold change),0.233
same,Klrb1f LN (average fold change),0.487
same,Klrc1 LN (average fold change),0.392
same,Klrc2 LN (average fold change),0.396
same,Klrd1 LN (average fold change),0.261
same,Klre1 LN (average fold change),0.295
same,Klrk1 LN (average fold change),0.213
same,Lax1 LN (average fold change),0.486
same,Litaf LN (average fold change),−0.518
same,Lmna LN (average fold change),−1.022
same,Maff LN (average fold change),−0.445
same,Mcpt1 LN (average fold change),1.756
same,Mir142hg LN (average fold change),−0.715
same,Ms4a4b LN (average fold change),0.271
same,Ms4a6b LN (average fold change),0.490
same,Myl6 LN (average fold change),0.199
same,Nabp1 LN (average fold change),−0.167
same,Ncr1 LN (average fold change),0.265
same,Ndel1 LN (average fold change),−0.337
same,Neat1 LN (average fold change),0.275
same,Neurl3 LN (average fold change),−0.244
same,Nfil3 LN (average fold change),0.490
same,Nfkb1 LN (average fold change),−0.244
same,Nfkbia LN (average fold change),−0.579
same,Nfkbid LN (average fold change),−1.010
same,Nfkbie LN (average fold change),−0.483
same,Nfkbiz LN (average fold change),−0.640
same,Ninj1 LN (average fold change),−0.512
same,Nkg7 LN (average fold change),0.194
same,Nr4a1 LN (average fold change),−0.415
same,Nr4a2 LN (average fold change),−0.530
same,Nr4a3 LN (average fold change),−0.808
same,Odc1 LN (average fold change),−0.540
same,P2ry10 LN (average fold change),−0.196
same,Phlda1 LN (average fold change),−0.867
same,Pim1 LN (average fold change),−0.358
same,Pnrc1 LN (average fold change),−0.302
same,Ppp1r15a LN (average fold change),−0.355
same,Ppp1r16b LN (average fold change),−0.367
same,Ppp3cc LN (average fold change),0.528
same,Prr7 LN (average fold change),−0.910
same,Ptp4a2 LN (average fold change),−0.243
